According to publication PMC3214078, “The PHD Finger of Human UHRF1 Reveals a New Subgroup of Unmethylated Histone H3 Tail Readers” (PLoS ONE, 2011):
Where no end group is shown, it is not given here. Me3 = trimethyl-lysine

T1: huUHRF1-PHD(296–367), PHD finger of human UHRF1 with the additional N-terminal zinc finger (human, UniProt Q96T88 296-367)
T1 construct: Vector pHGGWA (Gateway); also called ICBP90 PHD finger
T1 sequence (looked up): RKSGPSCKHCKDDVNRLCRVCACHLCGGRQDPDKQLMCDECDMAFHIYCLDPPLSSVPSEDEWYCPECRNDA

T2: huUHRF1-PHD(296–367) D337A (human, UniProt Q96T88 296-367, D337A)
T2 sequence (looked up): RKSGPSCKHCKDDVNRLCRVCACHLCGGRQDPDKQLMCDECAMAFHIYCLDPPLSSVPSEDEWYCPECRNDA

T3: huUHRF1-PHD(296–367) D334A (human, UniProt Q96T88 296-367, D334A)
T3 sequence (looked up): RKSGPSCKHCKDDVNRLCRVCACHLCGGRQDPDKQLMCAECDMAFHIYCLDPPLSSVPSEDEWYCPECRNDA


Tests used:
Details in all cases: both partners purified
[1] = target: T1, huUHRF1-PHD(296–367), PHD finger of …; test: ITC; 20°C; histone peptides (1–12Y, 1.5–2 mM) injected into huUHRF1-PHD (0.12–0.18 mM); 20 mM Tris pH 7, 150 mM NaCl, 0.5 mM TCEP, 25 µM ZnCl2, 0.1 mM PMSF
[2] = target: T2, huUHRF1-PHD(296–367) D337A; test: as above
[3] = target: T3, huUHRF1-PHD(296–367) D334A; test: as above
[4] = target: T1, huUHRF1-PHD(296–367), PHD finger of …; test: crystal structure; huUHRF1-PHD(296–367) at 606 µM with a 10-fold excess of H3 peptide (1–8); vapor diffusion at 17°C, 0.1 M Tris pH 8.5, 0.2 M MgCl2, 30% PEG 4000; 1.95 Å

Binder | Kd [1] [µM] | dH [1] [kcal/mol] | Kd [2] [µM] | Kd [3] [µM] | binding result [4]
ARTKQTARKSTGY (histone H3 N-terminal tail, residues 1-12; tyrosine after residue 12, read from the label '1–12Y'; also called unmodified H3; H3K4me0) [histone H3 peptide (1–12Y), unmodified] | 7.9 | -17.6 | ~70 | > 500 | 
ARTAQTARKSTGY (histone H3 N-terminal tail, residues 1-12 with K4A; tyrosine after residue 12, read from the label '1–12Y'; also called H3K4A) [histone H3 peptide (1–12Y) with K4 mutated to alanine] | 17 | -14.1 |  |  | 
ARTKQTAR (peptide, UniProt P68431 2-9, looked up, histone H3 N-terminal tail, residues 1-8 (five of the eight seen in the map); also called unmodified histone H3 peptide; histone H3 tail) [short histone H3 peptide including residues 1–8, unmodified] |  |  |  |  | binds
ARTK(Me3)QTARKSTGY (histone H3 N-terminal tail, residues 1-12; tyrosine after residue 12, read from the label '1–12Y'; also called H3K4me3) [histone H3 peptide (1–12Y) with trimethylated K4] | 25.9 | -11.6 |  |  | 
